In general, stoichiometry N refers to a count of units in the complex or per binding partner.

The results in this text go back to PMC3994269.

The target of assay [1] is Plasmodium falciparum heat shock factor binding protein (PfHSBP), endogenous (P. falciparum (endogenous in 3D7 parasites)) (UniProt Q8IIF8). The assay can be described thus: SEC; P. falciparum lysate on Superdex 200 10/300 GL in PBS; fractions immunoblotted for PfHSBP.
Assay [2] has the same target. The assay can be described thus: SDS-PAGE and immunoblot (SDS-resistant oligomers); P. falciparum lysate resolved on SDS-PAGE and probed with anti-PfHSBP antiserum; pre-immune serum as control.
The target is the same in assay [3]. As to the kind of experiment: immunoprecipitation, SDS-PAGE and phosphorimaging; lysate of [35S]-labelled P. falciparum (1% Triton X-100); anti-PfHSBP antiserum 1:25 at 4°C for 12 hours, Protein G beads; Protein G and pre-immune serum controls.

Several values for one entry are separate records, joined by “and”; a condition that tells them apart may be missing. Equal values may be shown once.

In the case of “Plasmodium falciparum heat shock factor binding protein (PfHSBP), endogenous (from UniProt Q8IIF8 1-113) (natural protein)”, the stoichiometry N in assay [1] is 6; in assay [2], 3 and 6; in assay [3] it was 6.
